Data from paper PMC10706272, “Improving the Thermostability of Thermomyces lanuginosus Lipase by Restricting the Flexibility of N-Terminus and C-Terminus Simultaneously via the 25-Loop Substitutions” (International Journal of Molecular Sciences, 2023).

These substances were tested on CCCCCCCCCCCCCCCC(=O)Oc1ccc([N+](=O)[O-])cc1 (assay: initial-rate hydrolysis of pNPP, p-nitrophenol release, Michaelis-Menten fit). Conditions: 37 °C, pH 9.0, Tris-HCl 100 mM, apparent Km, pNPP 0.25-10 mM.
Assay type: biochemical, Thermomyces lanuginosus
Excerpt: initial-rate hydrolysis of pNPP, p-nitrophenol release, Michaelis-Menten fit on TLL (Thermomyces lanuginosus lipase)
For “TLL (Thermomyces lanuginosus lipase) (Thermomyces lanuginosus; A52P)”, the Km was 0.24 ± 0.02 mM, the Vmax was 503 µmol/min/mg and the kcat was 1036 ± 4 s⁻¹. The kcat/Km was 4.383e+06 ± 42000 M⁻¹ s⁻¹. “TLL (Thermomyces lanuginosus lipase) (Thermomyces lanuginosus; D49N)” gave a Km of 0.22 ± 0.02 mM, a Vmax of 396 µmol/min/mg and a kcat of 777 ± 5 s⁻¹. For the same substance, the kcat/Km was 3.503e+06 ± 31000 M⁻¹ s⁻¹. Work on “TLL (Thermomyces lanuginosus lipase) (Thermomyces lanuginosus; D49R)” yielded a Km of 0.36 ± 0.01 mM, a Vmax of 828 µmol/min/mg and a kcat of 1900 ± 21 s⁻¹. For the same substance, the kcat/Km was 5.24e+06 ± 118000 M⁻¹ s⁻¹. For “TLL (Thermomyces lanuginosus lipase) (Thermomyces lanuginosus; K46S)”, the Km was 0.31 ± 0.02 mM, the Vmax was 681 µmol/min/mg and the kcat was 1380 ± 22 s⁻¹. The kcat/Km was 4.48e+06 ± 157000 M⁻¹ s⁻¹. “TLL (Thermomyces lanuginosus lipase) (Thermomyces lanuginosus; P51S)” gave a Km of 0.29 ± 0.03 mM, a Vmax of 668 µmol/min/mg and a kcat of 1354 ± 9 s⁻¹. For the same substance, the kcat/Km was 4.747e+06 ± 28000 M⁻¹ s⁻¹.
